# In article PMC3526836:
# B1: NHERF1 PDZ1 domain (N-terminal PDZ domain of NHERF1/EBP50), wild type (domain or fragment)
# chain: LPRLCCLEKGPNGYGFHLHGEKGKLGQYIRLVEPGSPAEKAGLLAGDRLVEVNGENVEKETHQQVVSRIRAALNAVRLLVVDPETDEQL
# B2: NHERF1 PDZ1 domain K32A/K34A (domain or fragment)
# chain: LPRLCCLEKGPNGYGFHLHGEAGALGQYIRLVEPGSPAEKAGLLAGDRLVEVNGENVEKETHQQVVSRIRAALNAVRLLVVDPETDEQL
# B3: NHERF1 PDZ1 domain Y38A/R40A (domain or fragment)
# chain: LPRLCCLEKGPNGYGFHLHGEKGKLGQAIALVEPGSPAEKAGLLAGDRLVEVNGENVEKETHQQVVSRIRAALNAVRLLVVDPETDEQL
# Biological target: C-terminal peptide of cystic fibrosis transmembrane conductance regulator (CFTR), F-Ahx-VQDTLR
# Experiment: fluorescence polarisation
row,Binder,Kd
1,B1,13 µM
2,B2,13 µM
3,B3,14 µM
